How the values were obtained:
Assay in all cases: flow cytometry on cells; equilibrium titration: 100 nM to 300 pM recombinant integrin αvβ6 incubated with 10^5 yeast cells displaying the knottin plus 10^6 un-induced yeast cells; integrin binding buffer (25 mM Tris pH 7.4, 150 mM NaCl, 2 mM CaCl2, 1 mM MgCl2, 1 mM MnCl2, 0.1% BSA); fluorescein anti-αv antibody, binding normalised to cMyc expression
[1] = biological target: R01-MR cystine knot peptide displayed on the yeast surface
[2] = biological target: R01 cystine knot peptide displayed on the yeast surface
[3] = biological target: R01-MG cystine knot peptide displayed on the yeast surface

- Kd [1]: 1 nM
- Kd [2]: 1 nM
- Kd [3]: 1.24 nM
Substance: Recombinant human integrin αvβ6 (from UniProt P06756 31-1048; P18564 22-709) (complex)

— publication PMC6791878, “Evaluation of integrin αvβ6 cystine knot PET tracers to detect cancer and idiopathic pulmonary fibrosis” (Nature Communications, 2019)
